Laboratory results taken from IntAct's records for PubMed 28533443.

B1: Complement factor H-related protein 1 (Homo sapiens), Q03591 (parent)
chain: MWLLVSVILISRISSVGGEATFCDFPKINHGILYDEEKYKPFSQVPTGEVFYYSCEYNFVSPSKSFWTRITCTEEGWSPTPKCLRLCFFPFVENGHSESSGQTHLEGDTVQIICNTGYRLQNNENNISCVERGWSTPPKCRSTDTSCVNPPTVQNAHILSRQMSKYPSGERVRYECRSPYEMFGDEEVMCLNGNWTEPPQCKDSTGKCGPPPPIDNGDITSFPLSVYAPASSVEYQCQNLYQLEGNKRITCRNGQWSEPPKCLHPCVISREIMENYNIALRWTAKQKLYLRTGESAEFVCKRGYRLSSRSHTLRTTCWDGKLEYPTCAKR
partner: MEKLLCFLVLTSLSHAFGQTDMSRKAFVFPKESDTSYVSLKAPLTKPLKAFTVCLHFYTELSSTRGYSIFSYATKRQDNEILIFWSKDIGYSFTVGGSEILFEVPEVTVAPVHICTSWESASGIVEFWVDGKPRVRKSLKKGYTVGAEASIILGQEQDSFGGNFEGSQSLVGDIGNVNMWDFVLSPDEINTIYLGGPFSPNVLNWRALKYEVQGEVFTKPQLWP

Variants of: B1
Conditions: with crp_human CRP
In the case of H157Y;L159V;E175Q, the “effect of a mutation on the interaction” value is reported as “with no effect”.
